From publication PMC10014863, “Structural analysis of the housecleaning nucleoside triphosphate pyrophosphohydrolase MazG from Mycobacterium tuberculosis” (Frontiers in Microbiology, 2023)
Positions count from the first letter of the chain named. Numbers in names are those of the source.

B1: Mtb-MazG E119A (enzyme)
chain: MIVVLVDPRRPTLVPVEAIEFLRGEVQYTEEMPVAVPWSLPAARSAHAGNDAPVLLSSDPNHPAVITRLAAGARLISAPDSQRGERLVDAVAMMDKLRTAGPWESEQTHDSLRRYLLEATYELLDAVRSGSVDQLREELGDLLLQVLFHARIAEDASQSPFTIDDVADTLMRKLGNRAPGVLAGESISLEDQLAQWEAAKASEKARKSVADDVHTGQPALALAQKVIQRAQKAGLPAHLIPDEITSVSVSADVDAENTLRTAVLDFIDRLRCAERAIAVARRGSNVAEQLDVTPLGVITEQEWLAHWPTAVNDSRGGSKKRKGMR
B2: Mtb-MazG E138A (enzyme)
chain: B1 chain with A119E, E138A
B3: Mtb-MazG D141A (enzyme)
chain: B1 chain with A119E, D141A
B4: Mtb-MazG E122A (enzyme)
chain: B1 chain with A119E, E122A
B5: Mtb-MazG (1–185) (domain or fragment)
chain: MIVVLVDPRRPTLVPVEAIEFLRGEVQYTEEMPVAVPWSLPAARSAHAGNDAPVLLSSDPNHPAVITRLAAGARLISAPDSQRGERLVDAVAMMDKLRTAGPWESEQTHDSLRRYLLEETYELLDAVRSGSVDQLREELGDLLLQVLFHARIAEDASQSPFTIDDVADTLMRKLGNRAPGVLAGE

Molecular target: the molecule itself
Assay: SEC

Protein | stoichiometry N
B1 | 2
B2 | 2
B3 | 2
B4 | 2
B5 | 2
